Measurements as given in patent US20170190753A1 (LABORATOIRE FRANCAIS DU FRACTIONNEMENT ET DES …, published 2017).

Target: C3 convertase complex (UniProt P01024 23-1663; P00751 260-764)
Assay: cell-based or functional assay
For C3 convertase activity % of the control in this document: test concentration or dose not given here.

Chain of C3 convertase complex (P01024 23-1663, chain 1 of 2): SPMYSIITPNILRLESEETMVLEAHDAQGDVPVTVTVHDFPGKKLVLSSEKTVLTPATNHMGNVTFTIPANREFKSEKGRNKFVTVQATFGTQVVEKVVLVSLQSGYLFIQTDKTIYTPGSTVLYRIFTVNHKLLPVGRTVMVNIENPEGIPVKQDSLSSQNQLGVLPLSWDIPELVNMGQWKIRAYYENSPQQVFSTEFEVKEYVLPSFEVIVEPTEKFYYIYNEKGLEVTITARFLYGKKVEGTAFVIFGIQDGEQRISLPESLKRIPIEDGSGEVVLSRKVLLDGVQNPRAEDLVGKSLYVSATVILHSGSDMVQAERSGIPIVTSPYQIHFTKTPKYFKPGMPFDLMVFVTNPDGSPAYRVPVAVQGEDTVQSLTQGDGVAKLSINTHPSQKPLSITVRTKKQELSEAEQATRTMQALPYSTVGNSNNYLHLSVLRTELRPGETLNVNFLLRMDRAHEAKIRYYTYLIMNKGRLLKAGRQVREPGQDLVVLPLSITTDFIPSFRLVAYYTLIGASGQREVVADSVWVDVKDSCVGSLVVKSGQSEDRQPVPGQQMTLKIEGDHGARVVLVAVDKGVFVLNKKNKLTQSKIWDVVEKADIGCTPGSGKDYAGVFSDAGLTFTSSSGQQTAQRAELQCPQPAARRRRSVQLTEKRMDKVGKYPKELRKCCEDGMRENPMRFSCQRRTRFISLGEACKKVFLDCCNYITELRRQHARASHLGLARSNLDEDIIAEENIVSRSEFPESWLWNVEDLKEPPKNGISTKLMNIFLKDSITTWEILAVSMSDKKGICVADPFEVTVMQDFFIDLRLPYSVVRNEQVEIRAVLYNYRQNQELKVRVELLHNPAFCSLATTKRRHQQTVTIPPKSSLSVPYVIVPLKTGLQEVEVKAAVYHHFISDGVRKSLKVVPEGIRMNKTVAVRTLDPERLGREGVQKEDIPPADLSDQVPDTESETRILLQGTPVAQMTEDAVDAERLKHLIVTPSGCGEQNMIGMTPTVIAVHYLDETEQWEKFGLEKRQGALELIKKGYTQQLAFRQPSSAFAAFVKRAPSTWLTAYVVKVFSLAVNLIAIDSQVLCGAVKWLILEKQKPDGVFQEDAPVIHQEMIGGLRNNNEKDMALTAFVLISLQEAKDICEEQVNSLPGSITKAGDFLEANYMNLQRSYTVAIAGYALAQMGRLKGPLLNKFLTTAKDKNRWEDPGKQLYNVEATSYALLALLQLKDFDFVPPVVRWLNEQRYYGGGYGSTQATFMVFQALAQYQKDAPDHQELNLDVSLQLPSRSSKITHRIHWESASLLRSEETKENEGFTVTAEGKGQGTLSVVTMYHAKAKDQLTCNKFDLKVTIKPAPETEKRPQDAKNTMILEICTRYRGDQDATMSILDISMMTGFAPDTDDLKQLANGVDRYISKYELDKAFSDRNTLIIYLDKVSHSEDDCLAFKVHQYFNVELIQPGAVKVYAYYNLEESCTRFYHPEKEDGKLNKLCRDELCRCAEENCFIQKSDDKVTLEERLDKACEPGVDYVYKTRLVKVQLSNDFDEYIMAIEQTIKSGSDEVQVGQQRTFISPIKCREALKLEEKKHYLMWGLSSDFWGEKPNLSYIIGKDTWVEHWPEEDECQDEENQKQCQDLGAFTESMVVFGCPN
Chain of C3 convertase complex (P00751 260-764, chain 2 of 2): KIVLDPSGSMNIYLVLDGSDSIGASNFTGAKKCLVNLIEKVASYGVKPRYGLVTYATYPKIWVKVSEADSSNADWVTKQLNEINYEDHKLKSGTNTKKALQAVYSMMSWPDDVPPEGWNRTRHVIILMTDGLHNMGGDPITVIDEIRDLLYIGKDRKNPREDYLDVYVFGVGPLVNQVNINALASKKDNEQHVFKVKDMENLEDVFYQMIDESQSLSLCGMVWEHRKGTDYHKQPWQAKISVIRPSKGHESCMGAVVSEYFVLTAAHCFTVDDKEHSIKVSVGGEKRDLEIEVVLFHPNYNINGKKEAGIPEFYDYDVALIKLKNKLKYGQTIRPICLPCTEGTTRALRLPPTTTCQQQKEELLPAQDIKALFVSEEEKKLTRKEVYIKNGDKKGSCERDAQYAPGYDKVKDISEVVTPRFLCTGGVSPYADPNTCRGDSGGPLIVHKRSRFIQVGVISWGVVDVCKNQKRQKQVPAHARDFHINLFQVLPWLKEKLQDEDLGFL

Binder	C3 convertase activity % of the control	C3 convertase activity IC50
pCEP4-1NT9-10CT20 (other) EDCNELPPRRNTEILTGSWSDQTYPEGTQAIYKCRPGYRSLGNVIMVCRKGEWVALNPLRKCQKRPCGHPGDTPFGTFTLTGGNVFEYGVKAVYTCNEGYQLLGEINYRECDTDGWTNDIPICEVVKCLPVTAPENGKIVSSAMEPDREYHFGQAVRFVCNSGYKIEGDEEMHCSDDGFWSKEKPKCVEISCKSPDVINGSPISQKIIYKENERFQYKCNMGYEYSERGDAVCTESGWRPLPSCEEKSCDNPYIPNGDYSPLRIKHRTGDEITYQCRNGFYPATRGNTAKCTSTGWIPAPRCTLKPCDYPDIKHGGLYHENMRRPYFPVAVGKYYSYYCDEHFETPSGSYWDHIHCTQDGWSPAVPCLRKCYFPYLENGYNQNYGRKFVQGKSIDVACHPGYALPKAQTTVTCMENGWSPTPRCIRVKTCSKSSIDIENGFISESQYTYALKEKAKYQCKLGYVTADGETSGSITCGKDGWSAQPTCIKSCDIPVFMNARTKNDFTWFKLNDTLDYECHDGYESNTGSTTGSIVCGYNGWSDLPICYEREGASGCELPKIDVHLVPDRKKDQYKVGEVLKFSCKPGFTIVGPNSVQCYHFGLSPDLPICKEQVQSCGPPPELLNGNVKEKTKEEYGHSEVVEYYCNPRFLMKGPNKIQCVDGEWTTLPVCIVEESTCGDIPELEHGWAQLSSPPYYYGDSVEFNCSESFTMIGHRSITCIHGVWTQLPQCVAIDKLKKCKSSNLIILEEHLKNKKEFDHNSNIRYRCRGKEGWIHTVCINGRWDPEVNCSMAQIQLCPPPPQIPNSHNMTTTLNYRDGEKVSVLCQENYLIQEGEEITCKDGRWQSIPLCVEKIPCSQPPQIEHGTINSSRSSQESYAHGTKLSYTCEGGFRISEENETTCYMGKWSSPPQCEGLPCKSPPEISHGVVAHMSDSYQYGEEVTYKCFEGFGIDGPAIAKCLGEKWSHPPSCIKTDCLSLPSFENAIPMGEKKDVYKAGEQVTYTCATYYKMDGASNVTCINSRWTGRPTCRDTSCVNPPTVQNAYIVSRQMSKYPSGERVRYQCRSPYEMFGDEEVMCLNGNWTEPPQCKDSTGKCGPPPPIDNGDITSFPLSVYAPASSVEYQCQNLYQLEGNKRITCRNGQWSEPPKCLHPCVISREIMENYNIALRWTAKQKLYSRTGESVEFVCKRGYRLSSRSHTLRTTCWDGKLEYPTCAKRGGSGHHHHHH	64 % of the control	0.552 µg/mL
pCEP4-1NT8-14CT20 (other) EDCNELPPRRNTEILTGSWSDQTYPEGTQAIYKCRPGYRSLGNVIMVCRKGEWVALNPLRKCQKRPCGHPGDTPFGTFTLTGGNVFEYGVKAVYTCNEGYQLLGEINYRECDTDGWTNDIPICEVVKCLPVTAPENGKIVSSAMEPDREYHFGQAVRFVCNSGYKIEGDEEMHCSDDGFWSKEKPKCVEISCKSPDVINGSPISQKIIYKENERFQYKCNMGYEYSERGDAVCTESGWRPLPSCEEKSCDNPYIPNGDYSPLRIKHRTGDEITYQCRNGFYPATRGNTAKCTSTGWIPAPRCTLKPCDYPDIKHGGLYHENMRRPYFPVAVGKYYSYYCDEHFETPSGSYWDHIHCTQDGWSPAVPCLRKCYFPYLENGYNQNHGRKFVQGKSIDVACHPGYALPKAQTTVTCMENGWSPTPRCIRVKTCSKSSIDIENGFISESQYTYALKEKAKYQCKLGYVTADGETSGSITCGKDGWSAQPTCIKSGASGCPPPPQIPNSHNMTTTLNYRDGEKVSVLCQENYLIQEGEEITCKDGRWQSIPLCVEKIPCSQPPQIEHGTINSSRSSQESYAHGTKLSYTCEGGFRISEENETTCYMGKWSSPPQCEGLPCKSPPEISHGVVAHMSDSYQYGEEVTYKCFEGFGIDGPAIAKCLGEKWSHPPSCIKTDCLSLPSFENAIPMGEKKDVYKAGEQVTYTCATYYKMDGASNVTCINSRWTGRPTCRDTSCVNPPTVQNAYIVSRQMSKYPSGERVRYQCRSPYEMFGDEEVMCLNGNWTEPPQCKDSTGKCGPPPPIDNGDITSFPLSVYAPASSVEYQCQNLYQLEGNKRITCRNGQWSEPPKCLHPCVISREIMENYNIALRWTAKQKLYSRTGESVEFVCKRGYRLSSRSHTLRTTCWDGKLEYPTCAKRGGSGHHHHHH	61 % of the control	0.645 µg/mL

Next, values leading:

C3 convertase activity % of the control	C3 convertase activity IC50	Binder
64 % of the control	0.57 µg/mL	pCEP4-1NT9-14CT20 (other) EDCNELPPRRNTEILTGSWSDQTYPEGTQAIYKCRPGYRSLGNVIMVCRKGEWVALNPLRKCQKRPCGHPGDTPFGTFTLTGGNVFEYGVKAVYTCNEGYQLLGEINYRECDTDGWTNDIPICEVVKCLPVTAPENGKIVSSAMEPDREYHFGQAVRFVCNSGYKIEGDEEMHCSDDGFWSKEKPKCVEISCKSPDVINGSPISQKIIYKENERFQYKCNMGYEYSERGDAVCTESGWRPLPSCEEKSCDNPYIPNGDYSPLRIKHRTGDEITYQCRNGFYPATRGNTAKCTSTGWIPAPRCTLKPCDYPDIKHGGLYHENMRRPYFPVAVGKYYSYYCDEHFETPSGSYWDHIHCTQDGWSPAVPCLRKCYFPYLENGYNQNYGRKFVQGKSIDVACHPGYALPKAQTTVTCMENGWSPTPRCIRVKTCSKSSIDIENGFISESQYTYALKEKAKYQCKLGYVTADGETSGSITCGKDGWSAQPTCIKSCDIPVFMNARTKNDFTWFKLNDTLDYECHDGYESNTGSTTGSIVCGYNGWSDLPICYEREGASGCPPPPQIPNSHNMTTTLNYRDGEKVSVLCQENYLIQEGEEITCKDGRWQSIPLCVEKIPCSQPPQIEHGTINSSRSSQESYAHGTKLSYTCEGGFRISEENETTCYMGKWSSPPQCEGLPCKSPPEISHGVVAHMSDSYQYGEEVTYKCFEGFGIDGPAIAKCLGEKWSHPPSCIKTDCLSLPSFENAIPMGEKKDVYKAGEQVTYTCATYYKMDGASNVTCINSRWTGRPTCRDTSCVNPPTVQNAYIVSRQMSKYPSGERVRYQCRSPYEMFGDEEVMCLNGNWTEPPQCKDSTGKCGPPPPIDNGDITSFPLSVYAPASSVEYQCQNLYQLEGNKRITCRNGQWSEPPKCLHPCVISREIMENYNIALRWTAKQKLYSRTGESVEFVCKRGYRLSSRSHTLRTTCWDGKLEYPTCAKRGGSGHHHHHH
69 % of the control	0.172 µg/mL	pCEP4-1NT9-11CT20 (other) EDCNELPPRRNTEILTGSWSDQTYPEGTQAIYKCRPGYRSLGNVIMVCRKGEWVALNPLRKCQKRPCGHPGDTPFGTFTLTGGNVFEYGVKAVYTCNEGYQLLGEINYRECDTDGWTNDIPICEVVKCLPVTAPENGKIVSSAMEPDREYHFGQAVRFVCNSGYKIEGDEEMHCSDDGFWSKEKPKCVEISCKSPDVINGSPISQKIIYKENERFQYKCNMGYEYSERGDAVCTESGWRPLPSCEEKSCDNPYIPNGDYSPLRIKHRTGDEITYQCRNGFYPATRGNTAKCTSTGWIPAPRCTLKPCDYPDIKHGGLYHENMRRPYFPVAVGKYYSYYCDEHFETPSGSYWDHIHCTQDGWSPAVPCLRKCYFPYLENGYNQNHGRKFVQGKSIDVACHPGYALPKAQTTVTCMENGWSPTPRCIRVKTCSKSSIDIENGFISESQYTYALKEKAKYQCKLGYVTADGETSGSITCGKDGWSAQPTCIKSCDIPVFMNARTKNDFTWFKLNDTLDYECHDGYESNTGSTTGSIVCGYNGWSDLPICYEREGASGCGPPPELLNGNVKEKTKEEYGHSEVVEYYCNPRFLMKGPNKIQCVDGEWTTLPVCIVEESTCGDIPELEHGWAQLSSPPYYYGDSVEFNCSESFTMIGHRSITCIHGVWTQLPQCVAIDKLKKCKSSNLIILEEHLKNKKEFDHNSNIRYRCRGKEGWIHTVCINGRWDPEVNCSMAQIQLCPPPPQIPNSHNMTTTLNYRDGEKVSVLCQENYLIQEGEEITCKDGRWQSIPLCVEKIPCSQPPQIEHGTINSSRSSQESYAHGTKLSYTCEGGFRISEENETTCYMGKWSSPPQCEGLPCKSPPEISHGVVAHMSDSYQYGEEVTYKCFEGFGIDGPAIAKCLGEKWSHPPSCIKTDCLSLPSFENAIPMGEKKDVYKAGEQVTYTCATYYKMDGASNVTCINSRWTGRPTCRDTSCVNPPTVQNAYIVSRQMSKYPSGERVRYQCRSPYEMFGDEEVMCLNGNWTEPPQCKDSTGKCGPPPPIDNGDITSFPLSVYAPASSVEYQCQNLYQLEGNKRITCRNGQWSEPPKCLHPCVISREIMENYNIALRWTAKQKLYSRTGESVEFVCKRGYRLSSRSHTLRTTCWDGKLEYPTCAKRGGSGHHHHHH
